Experimental data from US5786206.

What was measured:
[1] = biological target: control protein from cells containing plasmid pUR291 (beta-galactosidase without an apolipoprotein insert) (Escherichia coli (strain K12)) [β-galactosidase: P00722]; experiment: ELISA, plate coated with 1/32 dilution of the pUR291 control stock, HRPO-labeled AI-11 1:1000
[2] = biological target: control protein from cells containing plasmid pUR291 (beta-galactosidase without an apolipoprotein insert) (Escherichia coli (strain K12)) [β-galactosidase: P00722]; experiment: ELISA, plate coated with 1/4 dilution of the pUR291 control stock, HRPO-labeled AI-11 1:1000
[3] = biological target: apo A-I/B-100 fusion protein expressed by plasmid 137 (beta-galactosidase / apo A-I / apo B-100) (human); experiment: ELISA, plate coated with 1/2 dilution of the 137 stock (0.95 ug/100 ul), HRPO-labeled AI-11 1:1000
[4] = biological target: control protein from cells containing plasmid pUR291 (beta-galactosidase without an apolipoprotein insert) (Escherichia coli (strain K12)) [β-galactosidase: P00722]; experiment: ELISA, plate coated with 1/64 dilution of the pUR291 control stock, HRPO-labeled AI-11 1:1000
[5] = biological target: apo A-I/B-100 fusion protein expressed by plasmid 137 (beta-galactosidase / apo A-I / apo B-100) (human); experiment: ELISA, plate coated with 1/8 dilution of the 137 stock, HRPO-labeled AI-11 1:1000
[6] = biological target: control protein from cells containing plasmid pUR291 (beta-galactosidase without an apolipoprotein insert) (Escherichia coli (strain K12)) [β-galactosidase: P00722]; experiment: ELISA, plate coated with 1/8 dilution of the pUR291 control stock, HRPO-labeled AI-11 1:1000
[7] = biological target: control protein from cells containing plasmid pUR291 (beta-galactosidase without an apolipoprotein insert) (Escherichia coli (strain K12)) [β-galactosidase: P00722]; experiment: ELISA, plate coated with 1/2 dilution of the pUR291 control stock (395.0 ug/100 ul), HRPO-labeled AI-11 1:1000
[8] = biological target: apo A-I/B-100 fusion protein expressed by plasmid 137 (beta-galactosidase / apo A-I / apo B-100) (human); experiment: ELISA, plate coated with 1/64 dilution of the 137 stock, HRPO-labeled AI-11 1:1000
[9] = biological target: control protein from cells containing plasmid pUR291 (beta-galactosidase without an apolipoprotein insert) (Escherichia coli (strain K12)) [β-galactosidase: P00722]; experiment: ELISA, plate coated with 1/16 dilution of the pUR291 control stock, HRPO-labeled AI-11 1:1000
[10] = biological target: apo A-I/B-100 fusion protein expressed by plasmid 137 (beta-galactosidase / apo A-I / apo B-100) (human); experiment: ELISA, plate coated with 1/16 dilution of the 137 stock, HRPO-labeled AI-11 1:1000
[11] = biological target: apo A-I/B-100 fusion protein expressed by plasmid 137 (beta-galactosidase / apo A-I / apo B-100) (human); experiment: ELISA, plate coated with 1/4 dilution of the 137 stock, HRPO-labeled AI-11 1:1000
[12] = biological target: apo A-I/B-100 fusion protein expressed by plasmid 137 (beta-galactosidase / apo A-I / apo B-100) (human); experiment: ELISA, plate coated with 1/32 dilution of the 137 stock, HRPO-labeled AI-11 1:1000
[13] = biological target: apo A-I/B-100 fusion protein expressed by plasmid 137 (beta-galactosidase / apo A-I / apo B-100) (human); experiment: ELISA, plate coated with 1/8 dilution of the 137 stock, HRPO-labeled MB47 1:1000
[14] = biological target: control protein from cells containing plasmid pUR291 (beta-galactosidase without an apolipoprotein insert) (Escherichia coli (strain K12)) [β-galactosidase: P00722]; experiment: ELISA, plate coated with 1/8 dilution of the pUR291 control stock, HRPO-labeled MB47 1:1000
[15] = biological target: apo A-I/B-100 fusion protein expressed by plasmid 137 (beta-galactosidase / apo A-I / apo B-100) (human); experiment: ELISA, plate coated with 1/32 dilution of the 137 stock, HRPO-labeled MB47 1:1000
[16] = biological target: apo A-I/B-100 fusion protein expressed by plasmid 137 (beta-galactosidase / apo A-I / apo B-100) (human); experiment: ELISA, plate coated with 1/2 dilution of the 137 stock (0.95 ug/100 ul), HRPO-labeled MB47 1:1000
[17] = biological target: control protein from cells containing plasmid pUR291 (beta-galactosidase without an apolipoprotein insert) (Escherichia coli (strain K12)) [β-galactosidase: P00722]; experiment: ELISA, plate coated with 1/32 dilution of the pUR291 control stock, HRPO-labeled MB47 1:1000
[18] = biological target: control protein from cells containing plasmid pUR291 (beta-galactosidase without an apolipoprotein insert) (Escherichia coli (strain K12)) [β-galactosidase: P00722]; experiment: ELISA, plate coated with 1/4 dilution of the pUR291 control stock, HRPO-labeled MB47 1:1000
[19] = biological target: control protein from cells containing plasmid pUR291 (beta-galactosidase without an apolipoprotein insert) (Escherichia coli (strain K12)) [β-galactosidase: P00722]; experiment: ELISA, plate coated with 1/64 dilution of the pUR291 control stock, HRPO-labeled MB47 1:1000
[20] = biological target: control protein from cells containing plasmid pUR291 (beta-galactosidase without an apolipoprotein insert) (Escherichia coli (strain K12)) [β-galactosidase: P00722]; experiment: ELISA, plate coated with 1/2 dilution of the pUR291 control stock (395.0 ug/100 ul), HRPO-labeled MB47 1:1000
[21] = biological target: control protein from cells containing plasmid pUR291 (beta-galactosidase without an apolipoprotein insert) (Escherichia coli (strain K12)) [β-galactosidase: P00722]; experiment: ELISA, plate coated with 1/16 dilution of the pUR291 control stock, HRPO-labeled MB47 1:1000
[22] = biological target: apo A-I/B-100 fusion protein expressed by plasmid 137 (beta-galactosidase / apo A-I / apo B-100) (human); experiment: ELISA, plate coated with 1/64 dilution of the 137 stock, HRPO-labeled MB47 1:1000
[23] = biological target: apo A-I/B-100 fusion protein expressed by plasmid 137 (beta-galactosidase / apo A-I / apo B-100) (human); experiment: ELISA, plate coated with 1/4 dilution of the 137 stock, HRPO-labeled MB47 1:1000
[24] = biological target: apo A-I/B-100 fusion protein expressed by plasmid 137 (beta-galactosidase / apo A-I / apo B-100) (human); experiment: ELISA, plate coated with 1/16 dilution of the 137 stock, HRPO-labeled MB47 1:1000

monoclonal antibody AI-11, secreted by hybridoma AI-11 (ATCC HB 9201)
Optical density at 490 nm [1]: 0.05 OD 490 nm
Optical density at 490 nm [2]: 0.08 OD 490 nm
Optical density at 490 nm [3]: 1 OD 490 nm
Optical density at 490 nm [4]: 0.04 OD 490 nm
Optical density at 490 nm [5]: 0.2 OD 490 nm
Optical density at 490 nm [6]: 0.08 OD 490 nm
Optical density at 490 nm [7]: 0.1 OD 490 nm
Optical density at 490 nm [8]: 0.12 OD 490 nm
Optical density at 490 nm [9]: 0.07 OD 490 nm
Optical density at 490 nm [10]: 0.14 OD 490 nm
Optical density at 490 nm [11]: 0.6 OD 490 nm
Optical density at 490 nm [12]: 0.14 OD 490 nm

monoclonal antibody MB47, secreted by hybridoma MB47 (ATCC HB 8746)
Optical density at 490 nm [13]: 0.14 OD 490 nm
Optical density at 490 nm [14]: 0.1 OD 490 nm
Optical density at 490 nm [15]: 0.1 OD 490 nm
Optical density at 490 nm [16]: 1.3 OD 490 nm
Optical density at 490 nm [17]: 0.02 OD 490 nm
Optical density at 490 nm [18]: 0.12 OD 490 nm
Optical density at 490 nm [19]: 0.01 OD 490 nm
Optical density at 490 nm [20]: 0.1 OD 490 nm
Optical density at 490 nm [21]: 0.04 OD 490 nm
Optical density at 490 nm [22]: 0.08 OD 490 nm
Optical density at 490 nm [23]: 0.46 OD 490 nm
Optical density at 490 nm [24]: 0.1 OD 490 nm
